What all share (assay): ProteOn, one antigen concentration
Assay [1] has as its target T1, IFN-αWA (human, UniProt P05015 24-189).
T1 construct: also called IFN-α16; alpha WA

Assay [2] has as its target T2, IFN-αC (human, UniProt P01566 24-189).
T2 construct: also called IFN-α10; alpha C

The target in assay [3] is T3, IFN-α4a (human, UniProt P05014 24-189).
T3 construct: also called IFN-αM1

The target of assay [4] is T4, IFN-αG (human, UniProt P01569 24-189).
T4 construct: also called IFN-α5; alpha G

Assay [5] deals with T5, IFN-αF (human, UniProt P01568 24-189).
T5 construct: also called IFN-α21; alpha F
T5 chain: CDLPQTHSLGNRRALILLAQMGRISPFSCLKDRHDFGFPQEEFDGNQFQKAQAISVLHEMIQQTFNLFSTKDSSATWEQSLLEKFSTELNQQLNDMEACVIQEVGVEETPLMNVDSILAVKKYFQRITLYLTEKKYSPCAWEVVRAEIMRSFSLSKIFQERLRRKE

Assay [6] addresses T6, human IFN-ω (human, UniProt P05000 24-195).
T6 construct: also called interferon omega

Assay [7] addresses T7, IFN-αJ1 (human, UniProt P01567 24-189).
T7 construct: also called IFN-α7; alpha J1

B1: IFWM3291 (antibody, V domains shown)
VH: EVQLVQSGAEVKKPGESLKISCKGSGYSFTSYWIGWVRQMPGKGLEWMGIIDPSDSDTRYSPSFQGQVTISADKSISTAYLQWSSLKASDTAMYYCARHPGLNWAPDFDYWGQGTLVTVSS
VL: DIQMTQSPSSLSASVGDRVTITCRASQSIDEFLNWYQQKPGKAPKLLIYFASSLQSGVPSRFSGSGSGTDFTLTISSLQPEDFATYYCQQAHSFPLTFGQGTKVEIK
notes: VH IFWH591, VL IFWL999; converted mAb; also called IFWB3026
As a reminder, the Kd is a measure of binding affinity in units of concentration. Regarding B1, the Kd in assay [1] worked out at 0.125 nM; in assay [2], 0.045 nM; in assay [3], 0.317 nM; in assay [4] it was 0.067 nM; in assay [5] it was 0.051 nM; in assay [6] it was 0.028 nM. Also, the affinity in assay [7], expressed as Kd, was 0.122 nM.

B2: IFWM3303 (antibody, V domains shown)
VH: EVQLVQSGAEVKKPGESLKISCKGSGYSFTSYWIGWVRQMPGKGLEWMGIIDPSDSDTRYSPSFQGQVTISADKSISTAYLQWSSLKASDTAMYYCARHPGLNWAPDFDYWGQGTLVTVSS
VL: DIQMTQSPSSLSASVGDRVTITCRASQSIGSFLNWYQQKPGKAPKLLIYFASSLQSGVPSRFSGSGSGTDFTLTISSLQPEDFATYYCQQSYSIPITFGQGTKVEIK
notes: VH IFWH591, VL IFWL992; converted mAb; also called IFWB3038
As for B2, the Kd in assay [1] was 0.168 nM; in assay [2], 0.079 nM; in assay [3], 0.299 nM; in assay [4], 0.082 nM; in assay [5], 0.134 nM; in assay [6], 0.013 nM. This molecule also returned a Kd in assay [7] of 0.157 nM.

B3: IFWM3306 (antibody, V domains shown)
VH: EVQLVQSGAEVKKPGESLKISCKGSGYSFTSYWIGWVRQMPGKGLEWMGIIDPSDSDTRYSPSFQGQVTISADKSISTAYLQWSSLKASDTAMYYCARHPGLNWAPDFDYWGQGTLVTVSS
VL: DIQMTQSPSSLSASVGDRVTITCRASQSITNFLNWYQQKPGKAPKLLIYFASSLQSGVPSRFSGSGSGTDFTLTISSLQPEDFATYYCQQSLDFPLTFGQGTKVEIK
notes: VH IFWH591, VL IFWL1000; converted mAb; also called IFWB3041
B3: the Kd in assay [1] is 0.07 nM; in assay [2], 0.027 nM; in assay [3] it was 0.147 nM; in assay [4] it was 0.029 nM; in assay [5] it was 0.025 nM; in assay [6], 0.02 nM. Binding in assay [7] was put at a Kd of 0.086 nM.

B4: IFWM3301 (antibody, V domains shown)
VH: EVQLVQSGAEVKKPGESLKISCKGSGYSFTSYWIGWVRQMPGKGLEWMGIIDPSDSDTRYSPSFQGQVTISADKSISTAYLQWSSLKASDTAMYYCARHPGLNWAPDFDYWGQGTLVTVSS
VL: DIQMTQSPSSLSASVGDRVTITCRASQSIDGSLNWYQQKPGKAPKLLIYFASSLQSGVPSRFSGSGSGTDFTLTISSLQPEDFATYYCQQSYDFPLTFGQGTKVEIK
notes: VH IFWH591, VL IFWL983; converted mAb; also called IFWB3036
As to B4, the Kd was found to be 0.079 nM in assay [1]; 0.024 nM in assay [2]; 0.146 nM in assay [3]; 0.029 nM in assay [4]; 0.029 nM in assay [5]; 0.018 nM in assay [6]. In assay [7], the dissociation constant Kd came to 0.074 nM.

B5: IFWM3309 (antibody, V domains shown)
VH: EVQLVQSGAEVKKPGESLKISCKGSGYSFTSYWIGWVRQMPGKGLEWMGIIDPSDSDTRYSPSFQGQVTISADKSISTAYLQWSSLKASDTAMYYCARHPGLNWAPDFDYWGQGTLVTVSS
VL: DIQMTQSPSSLSASVGDRVTITCRASQSIGGFLNWYQQKPGKAPKLLIYFASSLQSGVPSRFSGSGSGTDFTLTISSLQPEDFATYYCQQSYSLPITFGQGTKVEIK
notes: VH IFWH591, VL IFWL1006; converted mAb; also called IFWB3044
Take B5: the Kd was determined as 0.139 nM in assay [1]; 0.109 nM in assay [2]; 0.383 nM in assay [3]; 0.12 nM in assay [4]; 0.14 nM in assay [5]; 0.055 nM in assay [6]. This molecule also gave a Kd in assay [7] of 0.275 nM.

B6: IFWM3302 (antibody, V domains shown)
VH: EVQLVQSGAEVKKPGESLKISCKGSGYSFTSYWIGWVRQMPGKGLEWMGIIDPSDSDTRYSPSFQGQVTISADKSISTAYLQWSSLKASDTAMYYCARHPGLNWAPDFDYWGQGTLVTVSS
VL: DIQMTQSPSSLSASVGDRVTITCRASQSINRFLNWYQQKPGKAPKLLIYAASSLQSGVPSRFSGSGSGTDFTLTISSLQPEDFATYYCQQAIDLPFTFGQGTKVEIK
notes: VH IFWH591, VL IFWL991; converted mAb; also called IFWB3037
Turning to B6, the Kd in assay [1] worked out at 0.168 nM; in assay [2], 0.083 nM; in assay [3] it was 0.268 nM; in assay [4], 0.098 nM; in assay [5], 0.072 nM; in assay [6], 0.052 nM. For the same molecule, in assay [7], binding was put at a Kd of 0.231 nM.

B7: IFWM3314 (antibody, V domains shown)
VH: EVQLVQSGAEVKKPGESLKISCKGSGYSFTSYWIGWVRQMPGKGLEWMGIIDPSDSDTRYSPSFQGQVTISADKSISTAYLQWSSLKASDTAMYYCARHPGLNWAPDFDYWGQGTLVTVSS
VL: DIQMTQSPSSLSASVGDRVTITCRASQSIDRALNWYQQKPGKAPKLLIYFASSLQSGVPSRFSGSGSGTDFTLTISSLQPEDFATYYCQQSFDFPLTFGQGTKVEIK
notes: VH IFWH591, VL IFWL1014; converted mAb; also called IFWB3049
B7: the Kd in assay [1] is 0.042 nM; in assay [2], 0.026 nM; in assay [3] it was 0.092 nM; in assay [4], 0.028 nM; in assay [5] it was 0.021 nM; in assay [6], 0.02 nM. The Kd in assay [7] was 0.039 nM.

B8: IFWM3292 (antibody, V domains shown)
VH: EVQLVQSGAEVKKPGESLKISCKGSGYSFTSYWIGWVRQMPGKGLEWMGIIDPSDSDTAYSPSFQGQVTISADKSISTAYLQWSSLKASDTAMYYCARHPGLNWAPDFDYWGQGTLVTVSS
VL: DIQMTQSPSSLSASVGDRVTITCRASQSIDEFLNWYQQKPGKAPKLLIYFASSLQSGVPSRFSGSGSGTDFTLTISSLQPEDFATYYCQQAHSFPLTFGQGTKVEIK
notes: VH IFWH624, VL IFWL999; converted mAb; also called IFWB3027
Consider B8, for which the Kd amounted to 0.072 nM in assay [1]; 0.123 nM in assay [2]; 0.613 nM in assay [3]; 0.049 nM in assay [4]; 0.098 nM in assay [5]; 0.018 nM in assay [6]. Moreover, the Kd in assay [7] was 0.295 nM.

B9: IFWM3311 (antibody, V domains shown)
VH: EVQLVQSGAEVKKPGESLKISCKGSGYSFTSYWIGWVRQMPGKGLEWMGIIDPSDSDTRYSPSFQGQVTISADKSISTAYLQWSSLKASDTAMYYCARHPGLNWAPDFDYWGQGTLVTVSS
VL: DIQMTQSPSSLSASVGDRVTITCRASQSIDDFLNWYQQKPGKAPKLLIYFASSLQSGVPSRFSGSGSGTDFTLTISSLQPEDFATYYCQQSHTLPLTFGQGTKVEIK
notes: VH IFWH591, VL IFWL1009; converted mAb; also called IFWB3046
As for B9, the Kd in assay [1] came to 0.072 nM; in assay [2], 0.036 nM; in assay [3], 0.223 nM; in assay [4], 0.056 nM; in assay [5], 0.021 nM; in assay [6], 0.012 nM. This molecule also showed a dissociation constant Kd in assay [7] of 0.056 nM.

B10: IFWM3304 (antibody, V domains shown)
VH: EVQLVQSGAEVKKPGESLKISCKGSGYSFTSYWIGWVRQMPGKGLEWMGIIDPSDSDTRYSPSFQGQVTISADKSISTAYLQWSSLKASDTAMYYCARHPGLNWAPDFDYWGQGTLVTVSS
VL: DIQMTQSPSSLSASVGDRVTITCRASQSIGSALNWYQQKPGKAPKLLIYFASSLQSGVPSRFSGSGSGTDFTLTISSLQPEDFATYYCQQSYDFPLTFGQGTKVEIK
notes: VH IFWH591, VL IFWL997; converted mAb; also called IFWB3039
In the case of B10, the Kd in assay [1] was determined as 0.092 nM; in assay [2], 0.026 nM; in assay [3] it was 0.12 nM; in assay [4] it was 0.037 nM; in assay [5] it was 0.032 nM; in assay [6] it was 0.032 nM. The molecule also registered a Kd in assay [7] of 0.053 nM.

B11: IFWM3308 (antibody, V domains shown)
VH: EVQLVQSGAEVKKPGESLKISCKGSGYSFTSYWIGWVRQMPGKGLEWMGIIDPSDSDTRYSPSFQGQVTISADKSISTAYLQWSSLKASDTAMYYCARHPGLNWAPDFDYWGQGTLVTVSS
VL: DIQMTQSPSSLSASVGDRVTITCRASQSIAEFLNWYQQKPGKAPKLLIYFASSLQSGVPSRFSGSGSGTDFTLTISSLQPEDFATYYCQQSIDFPLTFGQGTKVEIK
notes: VH IFWH591, VL IFWL1004; converted mAb; also called IFWB3043
B11: the Kd is 0.099 nM in assay [1]; 0.052 nM in assay [2]; 0.246 nM in assay [3]; 0.045 nM in assay [4]; 0.053 nM in assay [5]; 0.038 nM in assay [6]. In assay [7], binding was characterised by a dissociation constant (Kd) of 0.203 nM.

B12: IFWM3310 (antibody, V domains shown)
VH: EVQLVQSGAEVKKPGESLKISCKGSGYSFTSYWIGWVRQMPGKGLEWMGIIDPSDSDTRYSPSFQGQVTISADKSISTAYLQWSSLKASDTAMYYCARHPGLNWAPDFDYWGQGTLVTVSS
VL: DIQMTQSPSSLSASVGDRVTITCRASQSIGKSLNWYQQKPGKAPKLLIYFASSLQSGVPSRFSGSGSGTDFTLTISSLQPEDFATYYCQQSYDFPLTFGQGTKVEIK
notes: VH IFWH591, VL IFWL1007; converted mAb; also called IFWB3045
With B12, the Kd amounted to 0.091 nM in assay [1]; 0.057 nM in assay [2]; 0.177 nM in assay [3]; 0.054 nM in assay [4]; 0.04 nM in assay [5]; 0.065 nM in assay [6]. This molecule had a Kd in assay [7] of 0.101 nM.

B13: IFWM3305 (antibody, V domains shown)
VH: EVQLVQSGAEVKKPGESLKISCKGSGYSFTSYWIGWVRQMPGKGLEWMGIIDPSDSDTRYSPSFQGQVTISADKSISTAYLQWSSLKASDTAMYYCARHPGLNWAPDFDYWGQGTLVTVSS
VL: DIQMTQSPSSLSASVGDRVTITCRASQSISKFLNWYQQKPGKAPKLLIYFASSLQSGVPSRFSGSGSGTDFTLTISSLQPEDFATYYCQQSNTLPFTFGQGTKVEIK
notes: VH IFWH591, VL IFWL998; converted mAb; also called IFWB3040
B13: the Kd in assay [1] stood at 0.201 nM; in assay [2] it was 0.114 nM; in assay [3], 0.223 nM; in assay [4], 0.127 nM; in assay [5] it was 0.113 nM; in assay [6] it was 0.031 nM. The molecule further had a Kd in assay [7] of 0.154 nM.
